Data taken from article PMC12528385 (Nature Communications, 2025).

Target: human insulin receptor, B isoform (exon 11+), wild type (human, UniProt P06213)
Assay: flow cytometry on cells

| binding result | Binder |
| --- | --- |
| binds | monoclonal antibody 83-14 against the human insulin receptor (antibody, V domains shown) VH: QVQLQQSGPELVKPGALVKISCKASGYTFTNYDIHWVKQRPGQGLEWIGWIYPGDGSTKYNEKFKGKATLTADKSSSTAYMHLSSLTSEKSAVYFCAREWAYWGQGTLVTVSA VL: DIQMTQSPSSLSASLGERVSLTCRASQDIGGNLYWLQQGPDGTIKRLIYATSSLDSGVPKRFSGSRSGSDYSLTISSLESEDFVDYYCLQYSSSPWTFGGGTKLEIK |
| binds | monoclonal antibody 83-7 against the human insulin receptor (antibody, V domains shown) VH: QVQLKESGPGLVAPSQSLSITCTVSGFPLTAYGVNWVRQPPGKGLEWLGMIWGDGNTDYNSALKSRLSISKDNSKSQVFLKMNSLQTDDTARYYCARDPYGSKPMDYWGQGTSVTVSS VL: DIVMSQSPSSLVVSVGEKVTMSCKSSQSLLYSSNQKNFLAWYQQKPGQSPKLLIYWASTRESGVPDRFTGSGSGTDFTLTISSVKAEDLAVYYCQQYFRYRTFGGGTKLEIK |
